In patent publication US20200297818A1 (ZEALAND PHARMA A S, published 2020):
Substitutions are numbered along the chain they refer to.

T1: human GLP-2 receptor (hGLP2-R) (human, UniProt O95838 1-553)
T1 sequence (looked up): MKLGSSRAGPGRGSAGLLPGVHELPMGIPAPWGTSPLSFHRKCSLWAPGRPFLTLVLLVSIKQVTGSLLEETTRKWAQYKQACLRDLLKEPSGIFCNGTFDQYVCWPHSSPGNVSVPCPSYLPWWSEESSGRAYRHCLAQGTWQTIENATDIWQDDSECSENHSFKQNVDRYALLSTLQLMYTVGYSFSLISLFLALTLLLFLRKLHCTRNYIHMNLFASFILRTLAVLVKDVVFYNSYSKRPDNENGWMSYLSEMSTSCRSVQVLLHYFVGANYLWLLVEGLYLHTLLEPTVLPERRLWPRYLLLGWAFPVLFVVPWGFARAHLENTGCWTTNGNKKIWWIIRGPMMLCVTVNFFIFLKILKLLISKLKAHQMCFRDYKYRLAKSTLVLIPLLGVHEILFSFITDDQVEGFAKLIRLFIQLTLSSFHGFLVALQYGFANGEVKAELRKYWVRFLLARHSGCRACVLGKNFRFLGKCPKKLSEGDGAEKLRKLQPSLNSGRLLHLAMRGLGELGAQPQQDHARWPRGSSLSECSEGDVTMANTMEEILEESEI

B1: Compound 12 (peptide)
peptide: HXEGTFTSELATILDXLAARDFIAWLIEHKITD
HELM: PEPTIDE1{H.[Aib].E.G.T.F.T.S.E.L.A.T.I.L.D.K.L.A.A.R.D.F.I.A.W.L.I.E.H.K.I.T.D}|PEPTIDE2{[O=C(O)CCCCCCCCCCCCCCCCC(=O)[*:2]].[gGlu]}$PEPTIDE1,PEPTIDE2,16:R3-2:R2$$$V2.0
SMILES: CC[C@H](C)[C@H](NC(=O)[C@H](Cc1ccccc1)NC(=O)[C@H](CC(=O)O)NC(=O)[C@H](CCCNC(=N)N)NC(=O)[C@H](C)NC(=O)[C@H](C)NC(=O)[C@H](CC(C)C)NC(=O)[C@H](CCCCNC(=O)CC[C@H](NC(=O)CCCCCCCCCCCCCCCCC(=O)O)C(=O)O)NC(=O)[C@H](CC(=O)O)NC(=O)[C@H](CC(C)C)NC(=O)[C@@H](NC(=O)[C@@H](NC(=O)[C@H](C)NC(=O)[C@H](CC(C)C)NC(=O)[C@H](CCC(=O)O)NC(=O)[C@H](CO)NC(=O)[C@@H](NC(=O)[C@H](Cc1ccccc1)NC(=O)[C@@H](NC(=O)CNC(=O)[C@H](CCC(=O)O)NC(=O)C(C)(C)NC(=O)[C@@H](N)Cc1c[nH]cn1)[C@@H](C)O)[C@@H](C)O)[C@@H](C)O)[C@@H](C)CC)C(=O)N[C@@H](C)C(=O)N[C@@H](Cc1c[nH]c2ccccc12)C(=O)N[C@@H](CC(C)C)C(=O)N[C@H](C(=O)N[C@@H](CCC(=O)O)C(=O)N[C@@H](Cc1c[nH]cn1)C(=O)N[C@@H](CCCCN)C(=O)N[C@H](C(=O)N[C@H](C(=O)N[C@@H](CC(=O)O)C(=O)O)[C@@H](C)O)[C@@H](C)CC)[C@@H](C)CC
B2: Compound 15 (peptide)
peptide: B1 peptide with E28A
HELM: PEPTIDE1{H.[Aib].E.G.T.F.T.S.E.L.A.T.I.L.D.K.L.A.A.R.D.F.I.A.W.L.I.A.H.K.I.T.D}|PEPTIDE2{[O=C(O)CCCCCCCCCCCCCCCCC(=O)[*:2]].[gGlu]}$PEPTIDE1,PEPTIDE2,16:R3-2:R2$$$V2.0
SMILES: CC[C@H](C)[C@H](NC(=O)[C@H](CC(C)C)NC(=O)[C@H](Cc1c[nH]c2ccccc12)NC(=O)[C@H](C)NC(=O)[C@@H](NC(=O)[C@H](Cc1ccccc1)NC(=O)[C@H](CC(=O)O)NC(=O)[C@H](CCCNC(=N)N)NC(=O)[C@H](C)NC(=O)[C@H](C)NC(=O)[C@H](CC(C)C)NC(=O)[C@H](CCCCNC(=O)CC[C@H](NC(=O)CCCCCCCCCCCCCCCCC(=O)O)C(=O)O)NC(=O)[C@H](CC(=O)O)NC(=O)[C@H](CC(C)C)NC(=O)[C@@H](NC(=O)[C@@H](NC(=O)[C@H](C)NC(=O)[C@H](CC(C)C)NC(=O)[C@H](CCC(=O)O)NC(=O)[C@H](CO)NC(=O)[C@@H](NC(=O)[C@H](Cc1ccccc1)NC(=O)[C@@H](NC(=O)CNC(=O)[C@H](CCC(=O)O)NC(=O)C(C)(C)NC(=O)[C@@H](N)Cc1c[nH]cn1)[C@@H](C)O)[C@@H](C)O)[C@@H](C)O)[C@@H](C)CC)[C@@H](C)CC)C(=O)N[C@@H](C)C(=O)N[C@@H](Cc1c[nH]cn1)C(=O)N[C@@H](CCCCN)C(=O)N[C@H](C(=O)N[C@H](C(=O)N[C@@H](CC(=O)O)C(=O)O)[C@@H](C)O)[C@@H](C)CC
B3: Compound 13 (peptide)
peptide: B1 peptide with T7S, E28A
HELM: PEPTIDE1{H.[Aib].E.G.T.F.S.S.E.L.A.T.I.L.D.K.L.A.A.R.D.F.I.A.W.L.I.A.H.K.I.T.D}|PEPTIDE2{[O=C(O)CCCCCCCCCCCCCCCCC(=O)[*:2]].[gGlu]}$PEPTIDE1,PEPTIDE2,16:R3-2:R2$$$V2.0
SMILES: CC[C@H](C)[C@H](NC(=O)[C@H](CC(C)C)NC(=O)[C@H](Cc1c[nH]c2ccccc12)NC(=O)[C@H](C)NC(=O)[C@@H](NC(=O)[C@H](Cc1ccccc1)NC(=O)[C@H](CC(=O)O)NC(=O)[C@H](CCCNC(=N)N)NC(=O)[C@H](C)NC(=O)[C@H](C)NC(=O)[C@H](CC(C)C)NC(=O)[C@H](CCCCNC(=O)CC[C@H](NC(=O)CCCCCCCCCCCCCCCCC(=O)O)C(=O)O)NC(=O)[C@H](CC(=O)O)NC(=O)[C@H](CC(C)C)NC(=O)[C@@H](NC(=O)[C@@H](NC(=O)[C@H](C)NC(=O)[C@H](CC(C)C)NC(=O)[C@H](CCC(=O)O)NC(=O)[C@H](CO)NC(=O)[C@H](CO)NC(=O)[C@H](Cc1ccccc1)NC(=O)[C@@H](NC(=O)CNC(=O)[C@H](CCC(=O)O)NC(=O)C(C)(C)NC(=O)[C@@H](N)Cc1c[nH]cn1)[C@@H](C)O)[C@@H](C)O)[C@@H](C)CC)[C@@H](C)CC)C(=O)N[C@@H](C)C(=O)N[C@@H](Cc1c[nH]cn1)C(=O)N[C@@H](CCCCN)C(=O)N[C@H](C(=O)N[C@H](C(=O)N[C@@H](CC(=O)O)C(=O)O)[C@@H](C)O)[C@@H](C)CC
B4: Compound 14 (peptide)
peptide: B1 peptide with T5S, E28A
HELM: PEPTIDE1{H.[Aib].E.G.S.F.T.S.E.L.A.T.I.L.D.K.L.A.A.R.D.F.I.A.W.L.I.A.H.K.I.T.D}|PEPTIDE2{[O=C(O)CCCCCCCCCCCCCCCCC(=O)[*:2]].[gGlu]}$PEPTIDE1,PEPTIDE2,16:R3-2:R2$$$V2.0
SMILES: CC[C@H](C)[C@H](NC(=O)[C@H](CC(C)C)NC(=O)[C@H](Cc1c[nH]c2ccccc12)NC(=O)[C@H](C)NC(=O)[C@@H](NC(=O)[C@H](Cc1ccccc1)NC(=O)[C@H](CC(=O)O)NC(=O)[C@H](CCCNC(=N)N)NC(=O)[C@H](C)NC(=O)[C@H](C)NC(=O)[C@H](CC(C)C)NC(=O)[C@H](CCCCNC(=O)CC[C@H](NC(=O)CCCCCCCCCCCCCCCCC(=O)O)C(=O)O)NC(=O)[C@H](CC(=O)O)NC(=O)[C@H](CC(C)C)NC(=O)[C@@H](NC(=O)[C@@H](NC(=O)[C@H](C)NC(=O)[C@H](CC(C)C)NC(=O)[C@H](CCC(=O)O)NC(=O)[C@H](CO)NC(=O)[C@@H](NC(=O)[C@H](Cc1ccccc1)NC(=O)[C@H](CO)NC(=O)CNC(=O)[C@H](CCC(=O)O)NC(=O)C(C)(C)NC(=O)[C@@H](N)Cc1c[nH]cn1)[C@@H](C)O)[C@@H](C)O)[C@@H](C)CC)[C@@H](C)CC)C(=O)N[C@@H](C)C(=O)N[C@@H](Cc1c[nH]cn1)C(=O)N[C@@H](CCCCN)C(=O)N[C@H](C(=O)N[C@H](C(=O)N[C@@H](CC(=O)O)C(=O)O)[C@@H](C)O)[C@@H](C)CC

Target: T1, human GLP-2 receptor (hGLP2-R)
Assay: cell-based or functional assay

B1 and B2 are within 1.5-fold of each other in “EC50 GLP-2 (nM); cAMP response” value: 0.11 nM for the first, 0.16 nM for the second.

B3 and B4 are within 1.5-fold of each other in “EC50 GLP-2 (nM); cAMP response” value: 0.099 nM for the first, 0.086 nM for the second.

Target: human glucagon-like peptide 1 receptor (GLP-1 R) (human, UniProt P43220 24-463)
Assay: cell-based or functional assay

First: B1
Second: B2
The “EC50 GLP-1 (nM); cAMP response” value of the first is 1.8-fold lower: 0.14 nM for the first, 0.25 nM for the second.

Going from B3 to B4, the “EC50 GLP-1 (nM); cAMP response” value falls from 2.2 nM to 0.57 nM (3.9-fold).
